What all share (experiment): SPR (Biacore); receptor-Fc captured by anti-Fc antibody, ligand injected
In general terms: Surface plasmon resonance follows binding to a sensor surface in real time, without labels.

One assay has as its target T1, activin A (UniProt P08476 311-426).
T1 sequence (looked up): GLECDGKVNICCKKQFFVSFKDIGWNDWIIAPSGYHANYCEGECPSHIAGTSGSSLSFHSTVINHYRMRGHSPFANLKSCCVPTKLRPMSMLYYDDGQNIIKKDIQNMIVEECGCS
The protocol: (§1) A Biacore™-based binding assay was used to compare ligand binding selectivity of an exemplary ALK4-Fc:ActRIIB-Fc heterodimeric complex as described above with the binding selectivity of ActRIIB-Fc and ALK4-Fc homodimer complexes. The ALK4-Fc:ActRIIB-Fc heterodimer, ActRIIB-Fc homodimer, and ALK4-Fc homodimer were independently captured onto the system using an anti-Fc antibody. Ligands were injected and allowed to flow over the captured receptor protein. Results are summarized in the Table 5 below, in which ligand off-rates (kd) most indicative of effective ligand traps are denoted by gray shading.

The next assay has as its target T2, BMP10 (UniProt O95393 317-424).
T2 sequence (looked up): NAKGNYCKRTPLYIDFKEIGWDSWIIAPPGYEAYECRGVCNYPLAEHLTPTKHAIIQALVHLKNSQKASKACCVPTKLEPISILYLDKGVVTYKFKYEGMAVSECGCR
The protocol: as §1

The next assay concerns the target T3, GDF3 (UniProt Q9NR23 251-364).
T3 sequence (looked up): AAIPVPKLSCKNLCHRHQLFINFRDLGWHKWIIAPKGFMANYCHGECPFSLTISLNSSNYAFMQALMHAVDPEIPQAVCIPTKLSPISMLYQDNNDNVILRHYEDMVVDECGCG
The protocol:
as §1

For another assay, the target named is T4, GDF11 (UniProt O95390 299-407).
T4 construct: also called BMP11
T4 sequence (looked up): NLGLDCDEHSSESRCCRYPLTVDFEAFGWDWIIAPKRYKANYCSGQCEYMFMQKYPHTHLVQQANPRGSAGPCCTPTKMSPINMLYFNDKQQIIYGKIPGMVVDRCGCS
The protocol:
as §1

Another assay deals with T5, activin B (UniProt P09529 293-407).
T5 sequence (looked up): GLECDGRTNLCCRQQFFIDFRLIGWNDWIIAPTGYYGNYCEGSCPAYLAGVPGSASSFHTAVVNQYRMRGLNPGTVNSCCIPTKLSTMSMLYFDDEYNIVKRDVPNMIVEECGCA
The protocol:
as §1

In a further assay the target is T6, BMP6 (UniProt P22004 382-513, limits assumed).
T6 sequence (looked up): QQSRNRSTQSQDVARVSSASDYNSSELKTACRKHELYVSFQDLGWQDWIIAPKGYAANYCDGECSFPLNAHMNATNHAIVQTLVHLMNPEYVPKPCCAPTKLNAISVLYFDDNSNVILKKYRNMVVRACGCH
As for the experimental part: as §1

The target of the next assay is T7, GDF8 (UniProt O14793 267-375).
T7 construct: also called myostatin
T7 sequence (looked up): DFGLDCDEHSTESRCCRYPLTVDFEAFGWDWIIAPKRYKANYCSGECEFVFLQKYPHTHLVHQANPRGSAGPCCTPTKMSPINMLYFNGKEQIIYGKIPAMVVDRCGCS
As for the experimental part: as §1

B1: ALK4-Fc:ActRIIB-Fc heterodimer (Fc fusion)
chain 1: SGPRGVQALLCACTSCLQANYTCETDGACMVSIFNLDGMEHHVRTCIPKVELVPAGKPFYCLSSEDLRNTHCCYTDYCNRIDLRVPSGHLKEPEHPSMWGPVETGGGTHTCPPCPAPELLGGPSVFLFPPKPKDTLMISRTPEVTCVVVDVSHEDPEVKFNWYVDGVEVHNAKTKPREEQYNSTYRVVSVLTVLHQDWLNGKEYKCKVSNKALPAPIEKTISKAKGQPREPQVYTLPPSREEMTKNQVSLTCLVKGFYPSDIAVEWESNGQPENNYDTTPPVLDSDGSFFLYSDLTVDKSRWQQGNVFSCSVMHEALHNHYTQKSLSLSPG
chain 2: GRGEAETRECIYYNANWELERTNQSGLERCEGEQDKRLHCYASWRNSSGTIELVKKGCWLDDFNCYDRQECVATEENPQVYFCCCEGNFCNERFTHLPEAGGPEVTYEPPPTAPTGGGTHTCPPCPAPELLGGPSVFLFPPKPKDTLMISRTPEVTCVVVDVSHEDPEVKFNWYVDGVEVHNAKTKPREEQYNSTYRVVSVLTVLHQDWLNGKEYKCKVSNKALPAPIEKTISKAKGQPREPQVYTLPPSRKEMTKNQVSLTCLVKGFYPSDIAVEWESNGQPENNYKTTPPVLKSDGSFFLYSKLTVDKSRWQQGNVFSCSVMHEALHNHYTQKSLSLSPGK
notes: The C-terminal lysine is optional; also called ALK4-Fc:ActRIIB-Fc heterodimeric complex; ALK4:ActRIIB heterodimer
The term koff denotes the rate constant with which the complex falls apart. In general, kon refers to a measure of how fast the partners come together. Higher therefore signals faster complex formation. With B1, the koff worked out at 0.00015 s⁻¹ with activin A; 0.0041 s⁻¹ with BMP10; 0.017 s⁻¹ with GDF3; 0.00011 s⁻¹ with GDF11; 4e-05 s⁻¹ in the assay with activin B; 0.0055 s⁻¹ in the assay with BMP6. Further, the off-rate (koff) in the assay with GDF8 amounted to 0.00021 s⁻¹. Besides, the kon in the assay with activin A was found to be 1.3e+07 M⁻¹ s⁻¹; with BMP10, 5.6e+07 M⁻¹ s⁻¹; in the assay with GDF3, 3.4e+06 M⁻¹ s⁻¹; in the assay with GDF11 it was 3.8e+07 M⁻¹ s⁻¹; with activin B, 7.1e+06 M⁻¹ s⁻¹; in the assay with BMP6, 2e+06 M⁻¹ s⁻¹. In addition, the kon in the assay with GDF8 was found to be 390000 M⁻¹ s⁻¹.

These data come from patent US20220259297A1 (ACCELERON PHARMA, published 2022).
